According to patent US20250109187A1 (NOVAVAX, published 2025):

B1: NVX.324.6 (antibody, V domains shown)
VH: EVQLQQSGPELGKPGTSMKISCKASGYSFTGYTMNWVKQSHGKNLEWIGLINPYNGGTSYNQKFKDKATLTVDKSSSTAYMELLSLTSEDSAVYYCVREHYYYDSGYGGYYAMDYWGQGTSVTVSS
VL: QIVLSQSPAILSASPGDKVTMTCRASASVNYMYWYQQKPGSSPKPWIYATSNLASGVPARFSGSGSGTSYSLTISRVEAEDAAIYYCQQWSSNPYTFGGGTKLEIK
notes: also called mAb NVX.324.6
B2: NVX.62.12 (antibody, V domains shown)
VH: QVQLQQSGAELVRPGVSVKISCKGSGYTFTDYAMHWVKQSHAKSLEWIGVISTYSGDAYYNQKFKGKATVTVDKSSSTAYMELARLTSEDSAIYFCARNWDDYYAMDYWGQGTSVTVSS
VL: QIILSQSPAILSASPGERVTMTCRATSSVSYMHWYRQKPGSSPQPWIYATSNLASGVPARFSGSGSGTSYSLTISRVEAEDAATYYCQQWSGNPWTFGGGTKLEIK
notes: also called mAb NVX.62.12

What was measured:
XBB.1.16.6 rS [1] = target: T1, XBB.1.16.6 rS (SARS-CoV-2 variant XBB.1.16.6, UniProt P0DTC2 14-1273)
[2] = target: T2, SARS-CoV-2 Omicron XBB.1.5 rS (SARS-CoV-2 variant XBB.1.5, UniProt P0DTC2 14-1273)
EG.5.1 rS [3] = target: T3, EG.5.1 rS (SARS-CoV-2 variant EG.5.1, UniProt P0DTC2 14-1273)
XBB.2.3 rS [4] = target: T4, XBB.2.3 rS (SARS-CoV-2 variant XBB.2.3, UniProt P0DTC2 14-1273)
XBB.1.16 rS [5] = target: T5, XBB.1.16 rS (SARS-CoV-2 variant XBB.1.16, UniProt P0DTC2 14-1273)
FL.1.5.1 rS [6] = target: T6, FL.1.5.1 rS (SARS-CoV-2 variant FL.1.5.1, UniProt P0DTC2 14-1273)
XBB.1.16.6 rS [7] = target: T1, XBB.1.16.6 rS; assay: ELISA: rS coated, mAb titrated, anti-mouse HRP
[8] = target: T2, SARS-CoV-2 Omicron XBB.1.5 rS; assay: ELISA: rS coated, mAb titrated, anti-mouse HRP
EG.5.1 rS [9] = target: T3, EG.5.1 rS; assay: ELISA: rS coated, mAb titrated, anti-mouse HRP
XBB.2.3 rS [10] = target: T4, XBB.2.3 rS; assay: ELISA: rS coated, mAb titrated, anti-mouse HRP
XBB.1.16 rS [11] = target: T5, XBB.1.16 rS; assay: ELISA: rS coated, mAb titrated, anti-mouse HRP
FL.1.5.1 rS [12] = target: T6, FL.1.5.1 rS; assay: ELISA: rS coated, mAb titrated, anti-mouse HRP

Binder | IC50 (XBB.1.16.6 rS [1]) [µg/mL] | IC50 [2] [µg/mL] | IC50 (EG.5.1 rS [3]) [µg/mL] | IC50 (XBB.2.3 rS [4]) [µg/mL] | IC50 (XBB.1.16 rS [5]) [µg/mL] | IC50 (FL.1.5.1 rS [6]) [µg/mL] | EC50 (XBB.1.16.6 rS [7]) [µg/mL] | EC50 [8] [µg/mL] | EC50 (EG.5.1 rS [9]) [µg/mL] | EC50 (XBB.2.3 rS [10]) [µg/mL] | EC50 (XBB.1.16 rS [11]) [µg/mL] | EC50 (FL.1.5.1 rS [12]) [µg/mL]
B1 | > 3 | > 3 | > 3 | > 3 | > 3 | > 3 | 0.021 | 0.03 | 0.018 | 0.028 | 0.027 | 0.014
B2 | > 3 | > 3 | > 3 | > 3 | > 3 | > 3 | 0.063 | 0.056 | 0.029 | 0.067 | 0.044 | 0.021
